This test concerns the target T1, His-tagged P3028 (human, also: His-tag, terminus and sequence not given here).
T1 construct: in solution at 0.5 ug/mL over the peptide cards; found with anti-His-tag antibody and rabbit anti-mouse peroxidase (rampo); also called PGE73; not shown: His-tag
T1 peptide: VFDEFKPLVEEPQNLIK
The test is described as follows: PEPSCAN chip ELISA, His-P3028 in solution.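 Also: score is the raw OD at 405 nm from peroxidase colour with ABTS, imaged by CCD camera before and after staining, with wells showing air bubbles set to zero.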 Background: In an ELISA, binding on a coated surface is turned into a signal by an enzyme label.

No end group written: not given here.

B1: SEQ ID NO 387 (peptide)
peptide: KKLDTFFVKLSLFTDR
As for B1, the “RAMPO Score” value was determined as 404 rampo score.

B2: SEQ ID NO 404 (peptide)
peptide: KKLDTFAVKLSLFTER
As to B2, the “RAMPO Score” value amounted to 426 rampo score.

B3: SEQ ID NO 453 (peptide)
peptide: SKLDTFFVKLSLFTER
Turning to B3, the “RAMPO Score” value worked out at 344 rampo score.

B4: SEQ ID NO 447 (peptide)
peptide: KKLDAFFVKLSLFTER
As for B4, the “RAMPO Score” value was 346 rampo score.

B5: SEQ ID NO 441 (peptide)
peptide: KELDTFFVKLSLFTER
For B5, the “RAMPO Score” value turned out to be 349 rampo score.

B6: SEQ ID NO 444 (peptide)
peptide: KKLDTWFVKLSLFTER
For the molecule B6, the “RAMPO Score” value stood at 348 rampo score.

B7: SEQ ID NO 390 (peptide)
peptide: KKLDTFFVKLSLFTEN
With B7, the “RAMPO Score” value turned out to be 311 rampo score.

B8: SEQ ID NO 452 (peptide)
peptide: KKYDTFFVKLSLFTER
Regarding B8, the “RAMPO Score” value is 344 rampo score.

B9: SEQ ID NO 456 (peptide)
peptide: KKLDEFFVKLSLFTER
With B9, the “RAMPO Score” value came to 341 rampo score.

B10: SEQ ID NO 458 (peptide)
peptide: KKWDTFFVKLSLFTER
As for B10, the “RAMPO Score” value came out at 341 rampo score.

B11: SEQ ID NO 402 (peptide)
peptide: KNLDTFFVKLSLFTER
For the molecule B11, the “RAMPO Score” value came to 432 rampo score.

B12: SEQ ID NO 451 (peptide)
peptide: KKLSTFFVKLSLFTER
B12: the “RAMPO Score” value was 344 rampo score.

B13: SEQ ID NO 423 (peptide)
peptide: KKLMTFFVKLSLFTER
With B13, the “RAMPO Score” value is 384 rampo score.

B14: SEQ ID NO 457 (peptide)
peptide: KKLDTFFVKLCLFTER
With B14, the “RAMPO Score” value came to 341 rampo score.

B15: SEQ ID NO 401 (peptide)
peptide: KKLDTSFVKLSLFTER
As for B15, the “RAMPO Score” value was determined as 432 rampo score.

B16: SEQ ID NO 434 (peptide)
peptide: KKLDTYFVKLSLFTER
For the molecule B16, the “RAMPO Score” value was 364 rampo score.

B17: SEQ ID NO 462 (peptide)
peptide: KKLDTCFVKLSLFTER
For B17, the “RAMPO Score” value was 335 rampo score.

B18: SEQ ID NO 454 (peptide)
peptide: KLLDTFFVKLSLFTER
Consider B18, for which the “RAMPO Score” value was 343 rampo score.

B19: SEQ ID NO 466 (peptide)
peptide: KKLDTHFVKLSLFTER
Consider B19, for which the “RAMPO Score” value was found to be 332 rampo score.

B20: SEQ ID NO 409 (peptide)
peptide: KKLDTFCVKLSLFTER
Turning to B20, the “RAMPO Score” value came out at 411 rampo score.

B21: SEQ ID NO 392 (peptide)
peptide: KKLDTFFVKLSLFTET
With B21, the “RAMPO Score” value turned out to be 292 rampo score.

B22: SEQ ID NO 389 (peptide)
peptide: KKLDTFFVKLSLFTEK
As to B22, the “RAMPO Score” value was found to be 291 rampo score.

B23: SEQ ID NO 433 (peptide)
peptide: KKLDTFHVKLSLFTER
As to B23, the “RAMPO Score” value is 364 rampo score.

B24: SEQ ID NO 439 (peptide)
peptide: KKLDTFFVKLSLFTPR
Turning to B24, the “RAMPO Score” value came to 351 rampo score.

B25: SEQ ID NO 437 (peptide)
peptide: KKLDTFPVKLSLFTER
As to B25, the “RAMPO Score” value amounted to 356 rampo score.

B26: SEQ ID NO 448 (peptide)
peptide: KKLQTFFVKLSLFTER
As for B26, the “RAMPO Score” value was 345 rampo score.

B27: SEQ ID NO 438 (peptide)
peptide: KKLDTFFVKLSKFTER
Consider B27, for which the “RAMPO Score” value was determined as 355 rampo score.

B28: SEQ ID NO 449 (peptide)
peptide: KKLCTFFVKLSLFTER
As for B28, the “RAMPO Score” value stood at 344 rampo score.

B29: SEQ ID NO 459 (peptide)
peptide: KKLDTFFVKLSLFTYR
As for B29, the “RAMPO Score” value came out at 340 rampo score.

B30: SEQ ID NO 418 (peptide)
peptide: KHLDTFFVKLSLFTER
As for B30, the “RAMPO Score” value amounted to 394 rampo score.

B31: SEQ ID NO 420 (peptide)
peptide: KKLDHFFVKLSLFTER
As to B31, the “RAMPO Score” value turned out to be 391 rampo score.

B32: SEQ ID NO 407 (peptide)
peptide: KRLDTFFVKLSLFTER
For B32, the “RAMPO Score” value is 417 rampo score.

B33: SEQ ID NO 412 (peptide)
peptide: KGLDTFFVKLSLFTER
Turning to B33, the “RAMPO Score” value turned out to be 405 rampo score.

B34: SEQ ID NO 426 (peptide)
peptide: KKLFTFFVKLSLFTER
For B34, the “RAMPO Score” value stood at 380 rampo score.

B35: SEQ ID NO 413 (peptide)
peptide: KKLTTFFVKLSLFTER
As to B35, the “RAMPO Score” value is 405 rampo score.

B36: SEQ ID NO 445 (peptide)
peptide: KKLDTFFVTLSLFTER
In the case of B36, the “RAMPO Score” value came out at 347 rampo score.

B37: SEQ ID NO 411 (peptide)
peptide: KKLDTLFVKLSLFTER
For the molecule B37, the “RAMPO Score” value was 408 rampo score.

B38: SEQ ID NO 393 (peptide)
peptide: KKLDTFFVKLSLFTEY
B38: the “RAMPO Score” value is 311 rampo score.

B39: SEQ ID NO 397 (peptide)
peptide: KKLDTFIVKLSLFTER
For the molecule B39, the “RAMPO Score” value is 446 rampo score.

B40: SEQ ID NO 410 (peptide)
peptide: KKLDTQFVKLSLFTER
For B40, the “RAMPO Score” value was determined as 410 rampo score.

B41: SEQ ID NO 432 (peptide)
peptide: KKLDTFRVKLSLFTER
As for B41, the “RAMPO Score” value came to 369 rampo score.

B42: SEQ ID NO 464 (peptide)
peptide: KKLDTFFVKLRLFTER
For B42, the “RAMPO Score” value worked out at 333 rampo score.

B43: SEQ ID NO 417 (peptide)
peptide: KMLDTFFVKLSLFTER
As for B43, the “RAMPO Score” value is 400 rampo score.

B44: SEQ ID NO 443 (peptide)
peptide: KKLDTFNVKLSLFTER
On to B44, for which the “RAMPO Score” value was 348 rampo score.

B45: SEQ ID NO 425 (peptide)
peptide: KKLDTFWVKLSLFTER
As for B45, the “RAMPO Score” value was 380 rampo score.

B46: SEQ ID NO 463 (peptide)
peptide: KKLDTFYVKLSLFTER
Turning to B46, the “RAMPO Score” value came to 334 rampo score.

B47: SEQ ID NO 455 (peptide)
peptide: KKLDTFFVKLSCFTER
Turning to B47, the “RAMPO Score” value is 342 rampo score.

B48: SEQ ID NO 446 (peptide)
peptide: KKLDTGFVKLSLFTER
As to B48, the “RAMPO Score” value worked out at 347 rampo score.

B49: SEQ ID NO 419 (peptide)
peptide: KKLDTFFVKLVLFTER
For the molecule B49, the “RAMPO Score” value was 392 rampo score.

B50: SEQ ID NO 435 (peptide)
peptide: KKLPTFFVKLSLFTER
Regarding B50, the “RAMPO Score” value worked out at 364 rampo score.

B51: SEQ ID NO 450 (peptide)
peptide: KKLDTFFVKLSLFTQR
As for B51, the “RAMPO Score” value was 344 rampo score.

B52: SEQ ID NO 465 (peptide)
peptide: FKLDTFFVKLSLFTER
Turning to B52, the “RAMPO Score” value came out at 332 rampo score.

B53: SEQ ID NO 415 (peptide)
peptide: KKLDTFFVKLYLFTER
As for B53, the “RAMPO Score” value turned out to be 402 rampo score.

B54: SEQ ID NO 405 (peptide)
peptide: KPLDTFFVKLSLFTER
Take B54: the “RAMPO Score” value was 425 rampo score.

B55: SEQ ID NO 424 (peptide)
peptide: KKLDTFEVKLSLFTER
Consider B55, for which the “RAMPO Score” value was found to be 381 rampo score.

B56: SEQ ID NO 422 (peptide)
peptide: KKLDTFFVKLSFFTER
For the molecule B56, the “RAMPO Score” value turned out to be 389 rampo score.

B57: SEQ ID NO 388 (peptide)
peptide: KKLDTFFVKLSLFTEF
Regarding B57, the “RAMPO Score” value came to 297 rampo score.

B58: SEQ ID NO 429 (peptide)
peptide: KKLDVFFVKLSLFTER
For B58, the “RAMPO Score” value turned out to be 374 rampo score.

B59: SEQ ID NO 440 (peptide)
peptide: KQLDTFFVKLSLFTER
Take B59: the “RAMPO Score” value was determined as 350 rampo score.

B60: SEQ ID NO 460 (peptide)
peptide: KKLDTKFVKLSLFTER
Take B60: the “RAMPO Score” value came out at 337 rampo score.

B61: SEQ ID NO 416 (peptide)
peptide: KKLDTFFIKLSLFTER
Take B61: the “RAMPO Score” value was 401 rampo score.

B62: SEQ ID NO 431 (peptide)
peptide: KKLDTFFVKLSGFTER
For B62, the “RAMPO Score” value turned out to be 370 rampo score.

B63: SEQ ID NO 421 (peptide)
peptide: KFLDTFFVKLSLFTER
For B63, the “RAMPO Score” value amounted to 390 rampo score.

B64: SEQ ID NO 461 (peptide)
peptide: KDLDTFFVKLSLFTER
For B64, the “RAMPO Score” value stood at 335 rampo score.

B65: SEQ ID NO 436 (peptide)
peptide: KKPDTFFVKLSLFTER
On to B65, for which the “RAMPO Score” value is 361 rampo score.

For the origin of these results see patent US20170298096A1 (CANIMGUIDE THERAPEUTICS, published 2017).
